Source: paper PMC6469041 (BMC Microbiology, 2019)

Tests used:
[1] = molecular target: T1, PhnCDE (strain RS07, phn+3Δ) (Escherichia coli, UniProt A0A140NFA3+P16682); experiment: competition of […] uptake by intact cells; assay type: cell-based; settings: 10 µM 32Pi, 4 mM AePn added 50 s later; strain used for this test not named
T1 construct: gene phnD; native chromosomal ABC transporter in intact cells of RS07 (MG1655 ΔpitA ΔugpBAEC ΔpstSCAB-phoU phnE+); phnE is the functional BL21 allele without the 8 bp insertion of K-12; phnC and phnD may be of K-12 or co-transduced from BL21
T1 sequence (P16682 27-338): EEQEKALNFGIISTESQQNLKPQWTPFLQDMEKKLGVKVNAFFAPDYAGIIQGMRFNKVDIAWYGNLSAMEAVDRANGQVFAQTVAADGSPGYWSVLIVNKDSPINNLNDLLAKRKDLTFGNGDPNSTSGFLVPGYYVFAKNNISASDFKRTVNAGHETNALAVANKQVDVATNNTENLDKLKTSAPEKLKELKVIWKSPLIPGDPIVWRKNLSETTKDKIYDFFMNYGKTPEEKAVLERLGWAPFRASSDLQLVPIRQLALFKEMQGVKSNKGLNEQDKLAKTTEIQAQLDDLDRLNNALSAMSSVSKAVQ
T1 sequence (A0A140NFA3 1-259): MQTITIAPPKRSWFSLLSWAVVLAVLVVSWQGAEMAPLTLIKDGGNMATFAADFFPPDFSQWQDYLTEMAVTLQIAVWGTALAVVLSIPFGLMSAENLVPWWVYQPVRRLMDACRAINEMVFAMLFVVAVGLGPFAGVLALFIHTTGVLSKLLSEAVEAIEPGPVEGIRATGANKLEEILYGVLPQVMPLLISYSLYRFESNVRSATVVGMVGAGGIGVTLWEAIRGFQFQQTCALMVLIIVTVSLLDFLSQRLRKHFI
T1 sequence (P16677 1-262 partner): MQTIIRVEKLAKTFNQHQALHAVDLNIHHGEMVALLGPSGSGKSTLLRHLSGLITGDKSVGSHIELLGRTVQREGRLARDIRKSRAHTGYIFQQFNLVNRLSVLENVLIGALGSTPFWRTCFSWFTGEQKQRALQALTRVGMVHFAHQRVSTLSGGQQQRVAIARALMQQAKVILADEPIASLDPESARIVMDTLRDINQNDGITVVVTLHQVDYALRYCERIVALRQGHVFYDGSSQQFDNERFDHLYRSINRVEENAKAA

[2] = substrate: O=P(O)(O)O; experiment: cells, lysate or membranes

## NCCP(=O)(O)O [AePn, aminoethylphosphonate]
[1]
  inhibition of Pi uptake at 4 mM: addition of AePn strongly inhibited Pi uptake when compared to the control

B1: PhnCDE (strain RS07, phn+3Δ) (Escherichia coli BL21(DE3)) (protein)
chain 1: T1 sequence (P16682 27-338)
chain 2: T1 sequence (A0A140NFA3 1-259)
[2]; 5-20 µM KH2PO4, TG medium (Tris T-salts, glucose) pH 7.5, labelled compound
  Km: 19.46 µM

B2: PitA (strain RS04, pitA+3Δ) (Escherichia coli K-12) (protein)
chain: MLHLFAGLDLHTGLLLLLALAFVLFYEAINGFHDTANAVATVIYTRAMRSQLAVVMAAVFNFLGVLLGGLSVAYAIVHMLPTDLLLNMGSSHGLAMVFSMLLAAIIWNLGTWYFGLPASSSHTLIGAIIGIGLTNALMTGTSVVDALNIPKVLSIFGSLIVSPIVGLVFAGGLIFLLRRYWSGTKKRARIHLTPAEREKKDGKKKPPFWTRIALILSAIGVAFSHGANDGQKGIGLVMLVLIGVAPAGFVVNMNATGYEITRTRDAINNVEAYFEQHPALLKQATGADQLVPAPEAGATQPAEFHCHPSNTINALNRLKGMLTTDVESYDKLSLDQRSQMRRIMLCVSDTIDKVVKMPGVSADDQRLLKKLKSDMLSTIEYAPVWIIMAVALALGIGTMIGWRRVATTIGEKIGKKGMTYAQGMSAQMTAAVSIGLASYTGMPVSTTHVLSSSVAGTMVVDGGGLQRKTVTSILMAWVFTLPAAVLLSGGLYWLSLQFL
[2]; 15-50 µM KH2PO4, TG medium (Tris T-salts, glucose) pH 7.5, labelled compound
  Km: 25.99 µM
